Results: US20150344570A1 (published 2015)

T1: FcγRIIa R (human, UniProt P12318 34-217)
T1 construct: extracellular domain; also called FcgRIIa R type; 2aR
T1 sequence (looked up): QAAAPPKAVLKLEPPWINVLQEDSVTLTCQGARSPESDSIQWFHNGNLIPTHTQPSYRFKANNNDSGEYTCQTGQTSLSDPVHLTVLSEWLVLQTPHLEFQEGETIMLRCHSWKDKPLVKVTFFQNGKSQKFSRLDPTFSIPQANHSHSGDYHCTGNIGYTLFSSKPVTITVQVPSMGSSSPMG

B1: GpH7-A5/GpH7-B3 variant L328_14T/GpL16-k0 (antibody, human IgG1, kappa)
heavy 1: not shown
heavy 2: not shown
light: DIVMTQSPLSLPVTPGEPASISCQASESLVHSNRNTYLHWYLQKPGQSPQLLIYKVSNRFSGVPDRFSGSGSGTDFTLKISRVEAEDVGVYYCSQNTHVPPTFGQGTKVEIERTVAAPSVFIFPPSDEQLKSGTASVVCLLNNFYPREAKVQWKVDNALQSGNSQESVTEQDSKDSTYSLSSTLTLSKADYEKHKVYACEVTHQGLSSPVTKSFNRGEC
notes: also called He Ab L328_14T
B2: GpH7-A5/GpH7-B3 variant N325_03V/GpL16-k0 (antibody, human IgG1, kappa)
heavy 1: not shown
heavy 2: not shown
light: B1 light
notes: also called He Ab N325_03V
B3: GpH7-A5/GpH7-B3 variant N325_04F/GpL16-k0 (antibody, human IgG1, kappa)
heavy 1: not shown
heavy 2: not shown
light: B1 light
notes: also called He Ab N325_04F
B4: GpH7-A5/GpH7-B3 variant N325_06M/GpL16-k0 (antibody, human IgG1, kappa)
heavy 1: not shown
heavy 2: not shown
light: B1 light
notes: also called He Ab N325_06M
B5: GpH7-A5/GpH7-B3 variant N325_07I/GpL16-k0 (antibody, human IgG1, kappa)
heavy 1: not shown
heavy 2: not shown
light: B1 light
notes: also called He Ab N325_07I
B6: GpH7-A5/GpH7-B3 variant N325_08L/GpL16-k0 (antibody, human IgG1, kappa)
heavy 1: not shown
heavy 2: not shown
light: B1 light
notes: also called He Ab N325_08L
B7: GpH7-A5/GpH7-B3 variant N325_09D/GpL16-k0 (antibody, human IgG1, kappa)
heavy 1: not shown
heavy 2: not shown
light: B1 light
notes: also called He Ab N325_09D
B8: GpH7-A5/GpH7-B3 variant N325_10E/GpL16-k0 (antibody, human IgG1, kappa)
heavy 1: not shown
heavy 2: not shown
light: B1 light
notes: also called He Ab N325_10E
B9: GpH7-A5/GpH7-B3 variant N325_13S/GpL16-k0 (antibody, human IgG1, kappa)
heavy 1: not shown
heavy 2: not shown
light: B1 light
notes: also called He Ab N325_13S
B10: GpH7-A5/GpH7-B3 variant N325_14T/GpL16-k0 (antibody, human IgG1, kappa)
heavy 1: not shown
heavy 2: not shown
light: B1 light
notes: also called He Ab N325_14T
B11: GpH7-A5/GpH7-B3 variant N325_15Y/GpL16-k0 (antibody, human IgG1, kappa)
heavy 1: not shown
heavy 2: not shown
light: B1 light
notes: also called He Ab N325_15Y
B12: GpH7-A5/GpH7-B3 variant N325_20W/GpL16-k0 (antibody, human IgG1, kappa)
heavy 1: not shown
heavy 2: not shown
light: B1 light
notes: also called He Ab N325_20W
B13: GpH7-A5/GpH7-B3 variant P238_03V/GpL16-k0 (antibody, human IgG1, kappa)
heavy 1: not shown
heavy 2: not shown
light: B1 light
notes: also called He Ab P238_03V
B14: GpH7-A5/GpH7-B3 variant P238_04F/GpL16-k0 (antibody, human IgG1, kappa)
heavy 1: not shown
heavy 2: not shown
light: B1 light
notes: also called He Ab P238_04F
B15: GpH7-A5/GpH7-B3 variant P238_06M/GpL16-k0 (antibody, human IgG1, kappa)
heavy 1: not shown
heavy 2: not shown
light: B1 light
notes: also called He Ab P238_06M
B16: GpH7-A5/GpH7-B3 variant P238_09D/GpL16-k0 (antibody, human IgG1, kappa)
heavy 1: not shown
heavy 2: not shown
light: B1 light
notes: also called He Ab P238_09D
B17: GpH7-A5/GpH7-B3 variant P238_10E/GpL16-k0 (antibody, human IgG1, kappa)
heavy 1: not shown
heavy 2: not shown
light: B1 light
notes: also called He Ab P238_10E
B18: GpH7-A5/GpH7-B3 variant P238_15Y/GpL16-k0 (antibody, human IgG1, kappa)
heavy 1: not shown
heavy 2: not shown
light: B1 light
notes: also called He Ab P238_15Y
B19: GpH7-A5/GpH7-B3 variant P238_16H/GpL16-k0 (antibody, human IgG1, kappa)
heavy 1: not shown
heavy 2: not shown
light: B1 light
notes: also called He Ab P238_16H
B20: GpH7-A5/GpH7-B3 variant P238_19Q/GpL16-k0 (antibody, human IgG1, kappa)
heavy 1: not shown
heavy 2: not shown
light: B1 light
notes: also called He Ab P238_19Q
B21: GpH7-A5/GpH7-B3 variant P238_20W/GpL16-k0 (antibody, human IgG1, kappa)
heavy 1: not shown
heavy 2: not shown
light: B1 light
notes: also called He Ab P238_20W
B22: GpH7-A5/GpH7-B3 variant P271_08L/GpL16-k0 (antibody, human IgG1, kappa)
heavy 1: not shown
heavy 2: not shown
light: B1 light
notes: also called He Ab P271_08L
B23: GpH7-A5/GpH7-B3 variant P271_09D/GpL16-k0 (antibody, human IgG1, kappa)
heavy 1: not shown
heavy 2: not shown
light: B1 light
notes: also called He Ab P271_09D
B24: GpH7-A5/GpH7-B3 variant P271_10E/GpL16-k0 (antibody, human IgG1, kappa)
heavy 1: not shown
heavy 2: not shown
light: B1 light
notes: also called He Ab P271_10E
B25: GpH7-A5/GpH7-B3 variant P331_02A/GpL16-k0 (antibody, human IgG1, kappa)
heavy 1: not shown
heavy 2: not shown
light: B1 light
notes: also called He Ab P331_02A
B26: GpH7-A5/GpH7-B3 variant P331_03V/GpL16-k0 (antibody, human IgG1, kappa)
heavy 1: not shown
heavy 2: not shown
light: B1 light
notes: also called He Ab P331_03V
B27: GpH7-A5/GpH7-B3 variant P331_04F/GpL16-k0 (antibody, human IgG1, kappa)
heavy 1: not shown
heavy 2: not shown
light: B1 light
notes: also called He Ab P331_04F

Target: T1, FcγRIIa R
Assay: SPR (Biacore), captured antibody, FcγR as analyte; relative binding activity

In order of rising He/Con_2aR:
1. B11  101 % (GpH7-A5/GpH7-B3/GpL16-k0 = 100)
2. B24  103 % (GpH7-A5/GpH7-B3/GpL16-k0 = 100)
3. B20  104 % (GpH7-A5/GpH7-B3/GpL16-k0 = 100)
4. B22  104 % (GpH7-A5/GpH7-B3/GpL16-k0 = 100)
5. B8  105 % (GpH7-A5/GpH7-B3/GpL16-k0 = 100)
6. B10  105 % (GpH7-A5/GpH7-B3/GpL16-k0 = 100)
7. B25  106 % (GpH7-A5/GpH7-B3/GpL16-k0 = 100)
8. B2  108 % (GpH7-A5/GpH7-B3/GpL16-k0 = 100)
9. B23  110 % (GpH7-A5/GpH7-B3/GpL16-k0 = 100)
10. B27  111 % (GpH7-A5/GpH7-B3/GpL16-k0 = 100)
11. B26  114 % (GpH7-A5/GpH7-B3/GpL16-k0 = 100)
12. B7  116 % (GpH7-A5/GpH7-B3/GpL16-k0 = 100)
13. B21  117 % (GpH7-A5/GpH7-B3/GpL16-k0 = 100)
14. B1  119 % (GpH7-A5/GpH7-B3/GpL16-k0 = 100)
15. B3  120 % (GpH7-A5/GpH7-B3/GpL16-k0 = 100)
16. B13  120 % (GpH7-A5/GpH7-B3/GpL16-k0 = 100)
17. B19  122 % (GpH7-A5/GpH7-B3/GpL16-k0 = 100)
18. B5  133 % (GpH7-A5/GpH7-B3/GpL16-k0 = 100)
19. B12  134 % (GpH7-A5/GpH7-B3/GpL16-k0 = 100)
20. B15  139 % (GpH7-A5/GpH7-B3/GpL16-k0 = 100)
21. B9  143 % (GpH7-A5/GpH7-B3/GpL16-k0 = 100)
22. B6  144 % (GpH7-A5/GpH7-B3/GpL16-k0 = 100)
23. B16  148 % (GpH7-A5/GpH7-B3/GpL16-k0 = 100)
24. B17  151 % (GpH7-A5/GpH7-B3/GpL16-k0 = 100)
25. B4  152 % (GpH7-A5/GpH7-B3/GpL16-k0 = 100)
26. B18  156 % (GpH7-A5/GpH7-B3/GpL16-k0 = 100)
27. B14  174 % (GpH7-A5/GpH7-B3/GpL16-k0 = 100)
